Assay results published in article PMC5614878.

Columns and labels:
[1] = target: HIV-1 reverse transcriptase p66 p66 (Human immunodeficiency virus 1) (UniProt O93215); details: cited from earlier work
[2] = target: p51 (polymerase domain of HIV-1 reverse transcriptase) (HIV-1) (UniProt P03366); experiment: NMR

Substance | Kd [1] | percent dimeric [2] | stoichiometry N [2]
HIV-1 reverse transcriptase p66 p66 (from UniProt O93215) | 4 µM |  | 
p51 (polymerase domain of HIV-1 reverse transcriptase) (from UniProt P03366 600-1025) (domain or fragment) |  | 80% | 2
